The values that follow come from the nanobody polyreactivity screen of Harvey et al. (2022).

The data set is described as follows: yeast display, Sf9 membrane polyspecificity reagent, FACS + sequencing; frameworks hold sequencing errors. The method, boiled down:
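A nanobody's polyreactivity label depends on the gate it was sorted from. Yeast display cells were stained with 10% biotinylated, detergent-solubilized Sf9 membrane reagent for 1 hour at 4 °C, enriched on streptavidin microbeads and sorted by FACS. The low and high (top ~1%) gates were set on anti-HA fluorescence for expression and streptavidin fluorescence for reagent binding.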
As for “QVQLKESGGGQVQAGGSLRLCCAASGKIIPDAGMGWYRQAPGKEREFVAGISRGANTYYADSVKGRFTISRDNAKNTLYLHMYSLKPEDTAVFYCAVNVPWTYQYGYWGQGTQVTVSS”, the “polyreactivity (PSR sort gate)” value is “high polyreactivity”.

In the case of “QVQLLDSGGGLVQAGGSLRLSCAASGSIFGRNAMVWYRQAPGKEREFVATITSRGGRTYYADSVKGRFTISRDNAKNTVYLQMNSLKPEDTAVYYCAADTYISTLKKYRLGDYWGQGTQVTVSS”, the “polyreactivity (PSR sort gate)” value is given as “low polyreactivity”.

As to “QVQLLESGAGLVHAGGSLRISCAASGRTFGLNAMAWNPPAHGKETELVAAISSSGGSTYYADSVKGRFTISRDNPKNTVYLQMNSLTPEDTAVYYCAKVLNRYGTAYYYWGQGTQVTVSS”, the “polyreactivity (PSR sort gate)” value is “high polyreactivity”.

“QVQLLESGAGLVQAGGSLRLSCAAYGSTSYDYAMGWYRQAPGKERELVAAISGSSSTTYYADSVKGRFTISRDNAKNTVYLQMNSLKPEDTAVYYCNAVTTSGYGYGYWGQGTQVTVSS”: the “polyreactivity (PSR sort gate)” value was “low polyreactivity”.

Regarding “QVQLLESGAGLVQAGGSLRLSSAASGSIFNLNAMAWYRQAPGKERELVAGIRWSGGRTYYADSVKGRFTISRDNAKNTVYLQMNSLKPVDNEVYYCTAVGYLSWWYDYEYWGQGTQVTVST”, the “polyreactivity (PSR sort gate)” value was “high polyreactivity”.

Regarding “QVQLLESGGGIVQAGGSLRLSCDSSGSTFGTNAMGWYRQAPGKERELVAVITFSGGSTYYADSVKGRFTISRDNAKNTVYLQMNSLKPEDTAVYYCAKDGFITFVYDHDYWGQGTQVTVSS”, the “polyreactivity (PSR sort gate)” value is reported as “low polyreactivity”.

For “QVQLLESGGGKVQAVGSLRLSCAASGSIDDWYAMGWYRQAPGKERELLAAINEGGGSTYYADSVKGRFTISRDNAKNTVYFQMNILKPEDTAFYYCNAELSFRYPVFRELDYWGQGSQVTVSS”, the “polyreactivity (PSR sort gate)” value was “low polyreactivity”.

Take “QVQLLESGGGLDQAGGSLRISCPASGSIFWSNAMGWYRQAPGKEREFVAALTWSGDNTYFADSVKGRFTISRENAKNTVDLQMNSLKPEDTAVYYCAAVFQNKAVGGVTSIYDCRGQGTQVTVSS”: the “polyreactivity (PSR sort gate)” value is recorded as “low polyreactivity”.

Take “QVQLLESGGGLVHAGGSLRLSCAASGSIFPYYAMGWYRQAPGKERELVAAISDSGDSTYYADSVKGRFTISRDNAKNTVYLQMNSLKPEDTAVYYCNADSRTDYHPHGTMVGPDREYWGQGTQVTVSS”: the “polyreactivity (PSR sort gate)” value was “low polyreactivity”.

On to “QVQLLESGGGLVKAGGSLRLSCAPYGSIFYGYAMGWYRPAPGKERELVAAITRSGGSTYYADSVKGRFTITRFNAKNTVYLQMNSLKPEDTAVYYCAAGWRSVSVRYYGPSDYWGQGTQVTVSS”, for which the “polyreactivity (PSR sort gate)” value is “low polyreactivity”.

For “QVQLLESGGGLVLAGGSLRLSCAASGFIIRPYAIGWYRQAPGKERELVAAITYSSGSTYYADSVKGRFTISRDNAKYTVYLEMNSLKPEDTAVYYCNAEFWYETLYEYDYWGQGTQLTVSS”, the “polyreactivity (PSR sort gate)” value is recorded as “high polyreactivity”.

Consider “QVQLLESGGGLVPAGGSLRLSCAASGYIFHRYAMGWSRQAPGKERELVAAITWTGARTYYADSVKGRFTISRDNAKNTVYLQMNSLKPEDTAVYYAGPASYSFAKSGYWGQGTQVTVSS”, for which the “polyreactivity (PSR sort gate)” value is given as “high polyreactivity”.

On to “QVQLLESGGGLVQAGGSHRLSCAASGRIFGSNAMGWYRQAPGKERELVAAITRGGSTNYADSVKGRFTISLDNAKNTVYLQMNSLKPEDTAVYYCAVRWYRKYNYWGQGTQVTVSS”, for which the “polyreactivity (PSR sort gate)” value is recorded as “high polyreactivity”.

Consider “QVQLLESGGGLVQAGGSLRITCAASGFTFAVYAMGWYRQAPGKERELVAAISRSGTRTYYADSVKGRFTISRDNAKNTVYLLMNSLKPEDTAVYYCAADKYRHGYDYWGQGTQVTVSS”, for which the “polyreactivity (PSR sort gate)” value is recorded as “low polyreactivity”.

Consider “QVQLLESGGGLVQAGGSLRLRCAASGSIFISYAMGWYRQAPGKERELVAAISIRGTRTYYADSVKGRFTISRDNAKNTVYLHMNCLKPEDTAVYYCAADASYTEGMDYWGQGTQGTVSS”, for which the “polyreactivity (PSR sort gate)” value is on record as “high polyreactivity”.

As to “QVQLLESGGGLVQAGGSLRLSCAAAGIIFGYYTMGWYRQAPGNERELVAAITTTGGSTYYADSVKGRCTISRDNAKNTVYLQMNSLKPEDTAVYYCAARKWSHRTISDYWGQGTQVTVSS”, the “polyreactivity (PSR sort gate)” value is “high polyreactivity”.

Turning to “QVQLLESGGGLVQAGGSLRLSCAASGAIFFIYVMGWYRQAPGKERELVAAISGSGGPTYYADSVKVRFTISRDNAKNTVFLQMNRLKPEDTAVYYCAARGYRGRMGYWGQGTQVTVSS”, the “polyreactivity (PSR sort gate)” value was “low polyreactivity”.

In the case of “QVQLLESGGGLVQAGGSLRLSCAASGFNFYYYAMGWYRQAPGKERELVAAISKSGGSTHYADSVKGRFTISRDNAKHTVYLQMNSLKPEDTAVYYCAARYILSKYGSGVRYNYWGQGTQVTVSS”, the “polyreactivity (PSR sort gate)” value is given as “high polyreactivity”.

“QVQLLESGGGLVQAGGSLRLSCAASGFTFLQYAMGWYRQAPGKERELVAAISWSGSRTYYADSVKGRFTISRDNAKNTVYLQMNSLKPEETAVYYCAAVYGGLTLTRNYYWGQGTQVTVSS”: the “polyreactivity (PSR sort gate)” value was “high polyreactivity”.

As for “QVQLLESGGGLVQAGGSLRLSCAASGFTFYLYTMGWYRQATGKERELVAAISRSGDRTYYADSVKGRFTISRDNAKNNVYLQMNSLKPEDTAVYYCAARSYRPTRGDYWGQGTQVTVST”, the “polyreactivity (PSR sort gate)” value is “high polyreactivity”.

In the case of “QVQLLESGGGLVQAGGSLRLSCAASGLTYYYAMGWYRQAPGKERELVAAISYSGGRTNYADSVKGRFTISRDNAKNTVYLQMNSLKPEDTAVYFCAAVGPRTDYSGYRYYYWVQGTQVTVSS”, the “polyreactivity (PSR sort gate)” value is “high polyreactivity”.

In the case of “QVQLLESGGGLVQAGGSLRLSCAASGRIFDYYAMGWYRQAPGKERELVAAISDSGDSTYYADSVKGRFTISRDNAKNTVYLQMNRLKPVDTAVYYCAAQGGWIPAQDVRSSWGYNYWGQGTQVSVSS”, the “polyreactivity (PSR sort gate)” value is listed as “high polyreactivity”.

Take “QVQLLESGGGLVQAGGSLRLSCAASGRIFGVNAMGWYRQAPGKERELVAAISAGGGNTYYADSVKGRFTISRDNAKNSVYLQMNSLKPEDTAVYYCNVQRSLRMDYWGQGTQVTVSS”: the “polyreactivity (PSR sort gate)” value is given as “high polyreactivity”.

As to “QVQLLESGGGLVQAGGSLRLSCAASGRIFHYNAMGWYRQAPGKERELVAAITRRGTSTYYADSVKGRFTISRDNAKNTVYLQMNSLKPEDTAVYYCNTDTYYRLLDYWGQGTQVTVSS”, the “polyreactivity (PSR sort gate)” value is given as “low polyreactivity”.

Regarding “QVQLLESGGGLVQAGGSLRLSCAASGRILTGYAMGWYRQAPGKERELVASINWRGGSTYYADSVKRRFTISRDNAKNTVYLQLNSLKPEDTAVYYCAARVRVTGTYYTKYDYWGQGTQVTVSS”, the “polyreactivity (PSR sort gate)” value is listed as “high polyreactivity”.

“QVQLLESGGGLVQAGGSLRLSCAASGRTFAYNAMAWDRQAPGTERELVADITSGGSTYYADSVKGRFTISRDNAKNTVYLQMNSRKPEDTAVYYCAGYPQFWYWDYNYWGQGTQVTVSS”: the “polyreactivity (PSR sort gate)” value is recorded as “high polyreactivity”.

Turning to “QVQLLESGGGLVQAGGSLRLSCAASGRTFEYYAMGWYRQAPGKERELDAAITSGGITYYADSVKGRFTISRDNAKITVYLQMNSLKPEDSAVYYCAAKGWYFGYGRYGYWGQGTQVTVSS”, the “polyreactivity (PSR sort gate)” value was “high polyreactivity”.

In the case of “QVQLLESGGGLVQAGGSLRLSCAASGRTFSGYAMGWYRQAPGKERELVAAISESGDGTYYADSVKGRFTISRDNAKNTVYLQMNSLKPEDTAVYYCAADGTLFSEYYWFFGYHDYWGQGTQVTVSS”, the “polyreactivity (PSR sort gate)” value is “high polyreactivity”.

Consider “QVQLLESGGGLVQAGGSLRLSCAASGRTFTYYAMGWYRQAPGKERELVASISTTGRTYYADSVKGRFTISRDNAKNTVYLQMNSLKPDDTAVYYCATRSRYYYDYWGQGTQVTVSS”, for which the “polyreactivity (PSR sort gate)” value is “high polyreactivity”.

In the case of “QVQLLESGGGLVQAGGSLRLSCAASGSIFEGNGMGWYRQAPGKERELVAAITFRSGSTYYADSVKGRFTISRDNAKNTVYLQMNSLKPEDTAVYYCAADEYYEVSAYDYWGQGTQVTVSS”, the “polyreactivity (PSR sort gate)” value was “low polyreactivity”.

For the sequence “QVQLLESGGGLVQAGGSLRLSCAASGSIFGGYSMGWYRQAPGKERELVAAISWSGASTYYADSVKGRFTISRDNATTTVSLQMNSLKPEDTAVYSCAARSRVDLARSGYWGQGCQVTVSS”, the “polyreactivity (PSR sort gate)” value was “low polyreactivity”.

“QVQLLESGGGLVQAGGSLRLSCAASGSIFGRYVMGWYRQAPGKERELVPRITQSGGSTYYADSVKGRFTISRDNAKNTVYLQMNSLKPEDTAVYYCNVARWGNIPVGEYDYWGQGTQVTVSS”: the “polyreactivity (PSR sort gate)” value was “high polyreactivity”.

For the sequence “QVQLLESGGGLVQAGGSLRLSCAASGSIFYLYAMGWYIQAPGKERELVAVIRRGGSTKYADSVKGRFTISRDNSKNSVYLQMNSLKPEDTAVYDCNVVGYAYGWQYDYWGQGTQVNVSS”, the “polyreactivity (PSR sort gate)” value is on record as “high polyreactivity”.

In the case of “QVQLLESGGGLVQAGGSLRLSCAASGSIFYPYALGWYRQAPGKERELVAGISRSGASTYYADSVKGRFTISRDKAKNTVYLQMNSLKPEDTAVYYCAADDWTRNYWGQGTQVTVSS”, the “polyreactivity (PSR sort gate)” value is on record as “low polyreactivity”.

Take “QVQLLESGGGLVQAGGSLRLSCAASGSIINRYAMGLYRQAPGKERELVAAISWRGGSTYYADSVKGRFTISRDNAKNTVYLQMNSLKPEDTAVYYCNKVSYVKSGYWGQGTQVTVSS”: the “polyreactivity (PSR sort gate)” value is reported as “high polyreactivity”.

On to “QVQLLESGGGLVQAGGSLRLSCAASGSTFDDYAMGWYRQAPGKEREFVAAIDWSGGSTYYADSVKGRFTISRDNAKNTVYLQMNSLKPEDTAVYYCNADPDGSFDYWGQGTQVTVSS”, for which the “polyreactivity (PSR sort gate)” value is on record as “low polyreactivity”.

For the sequence “QVQLLESGGGLVQAGGSLRLSCAASGSTFDIYTMGWYRQAPGKERELVAAISRSGTRTYYADSVKGRFTISRDNAKNTVYLQMNSLKPEDTAVYYCNAVQQYYGTWGYGYWGQGTQVTVSS”, the “polyreactivity (PSR sort gate)” value was “high polyreactivity”.

With “QVQLLESGGGLVQAGGSLRLSCAASGSTFLIYAMGWYRQAPGKERELVASINLNTGRTSYADSVKGRFTISRDNAKNTVYLQMNSLKPEDTAVYYCAAELWVRFRGVKEYDYWGQGTQVSVSS”, the “polyreactivity (PSR sort gate)” value was “high polyreactivity”.

For “QVQLLESGGGLVQAGGSLRLSCAASGSTFQAYAMGWYRQAPGKERELVAAISVSDGITYYADSVKGRFTISRDNAKNTVYLQMNSLKPEDTAVYYCAAEISLSRSDRIESYDYWGQGTQVTVSS”, the “polyreactivity (PSR sort gate)” value was “low polyreactivity”.

Turning to “QVQLLESGGGLVQAGGSLRLSCAASGSTFVGYAMGWYRQAPGKERELVAAISGSGTSTYYADSVKGRFTISRDNAKNTVYLQMNSLKPEDTAVYYCNADPIFVYSSYNYWGQGTQVTVSS”, the “polyreactivity (PSR sort gate)” value is “low polyreactivity”.

With “QVQLLESGGGLVQAGGSLRLSCAASGSTFWPNAMGWYRQAPGKERELVAAITGGGGTNYADSVKGRFTISRDNAKNTVYLQMNSLKPEDTAVYYCAAKKVNSRSHVKYYYWGQGTQVTVSS”, the “polyreactivity (PSR sort gate)” value is “high polyreactivity”.
